Experimental findings from doi:10.1101/2025.01.15.633177 (bioRxiv, 2025) are described below.

Series [1] concerns the target T1, unphosphorylated Aurora-A 1-403 (UniProt O14965 1-403).
T1 sequence: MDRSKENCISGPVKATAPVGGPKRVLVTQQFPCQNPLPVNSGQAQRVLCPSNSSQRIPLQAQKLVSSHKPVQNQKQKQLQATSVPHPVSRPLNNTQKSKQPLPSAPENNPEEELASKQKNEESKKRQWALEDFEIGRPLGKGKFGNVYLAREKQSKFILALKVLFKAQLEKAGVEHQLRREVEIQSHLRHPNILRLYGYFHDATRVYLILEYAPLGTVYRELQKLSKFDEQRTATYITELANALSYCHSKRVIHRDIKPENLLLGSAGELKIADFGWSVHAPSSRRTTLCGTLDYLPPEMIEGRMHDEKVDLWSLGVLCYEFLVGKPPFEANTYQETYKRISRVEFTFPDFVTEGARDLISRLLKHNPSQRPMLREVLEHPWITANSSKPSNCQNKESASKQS
The series is described as follows: pull-down.

Series [2] addresses T2, Aurora-A kinase domain (UniProt O14965 122-403, C290A;K339C;C393A).
T2 sequence: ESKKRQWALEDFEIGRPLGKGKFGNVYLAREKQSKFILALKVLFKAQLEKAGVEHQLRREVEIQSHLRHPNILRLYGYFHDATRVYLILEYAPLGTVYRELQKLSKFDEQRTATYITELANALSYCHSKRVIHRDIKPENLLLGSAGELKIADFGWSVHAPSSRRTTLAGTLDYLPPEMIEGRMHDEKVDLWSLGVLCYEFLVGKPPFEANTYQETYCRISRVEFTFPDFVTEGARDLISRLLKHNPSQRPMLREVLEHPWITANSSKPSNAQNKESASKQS
The series is described as follows: EMSA. (Mobility shift assays separate free from complexed probe on a gel.)

The target of series [3] is T3, Aurora-A 1-403, unphosphorylated (UniProt O14965 1-403).
T3 sequence: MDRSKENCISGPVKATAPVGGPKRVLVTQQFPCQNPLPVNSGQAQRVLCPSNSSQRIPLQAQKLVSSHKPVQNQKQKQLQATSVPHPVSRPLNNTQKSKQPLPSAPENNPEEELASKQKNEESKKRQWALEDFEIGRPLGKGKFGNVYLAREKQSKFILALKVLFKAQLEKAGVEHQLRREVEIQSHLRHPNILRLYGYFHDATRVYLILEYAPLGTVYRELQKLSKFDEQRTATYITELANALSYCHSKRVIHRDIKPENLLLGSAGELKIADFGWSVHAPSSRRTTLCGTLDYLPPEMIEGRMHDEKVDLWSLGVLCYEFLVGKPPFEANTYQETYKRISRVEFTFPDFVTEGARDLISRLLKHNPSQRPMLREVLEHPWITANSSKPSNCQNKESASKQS
Description: pull-down.

B1: 3xFLAG-MYCN 1-137 (domain or fragment)
chain: MPSCSTSTMPGMICKNPDLEFDSLQPCFYPDEDDFYFGGPDSTPPGEDIWKKFELLPTPPLSPSRGFAEHSSEPPSWVTEMLLENELWGSPAEEDAFGLGGLGGLTPNPVILQDCMWSGFSAREKLERAVSEKLQHG
B1: the binding result in series [1] is on record as “binds”.

B2: UGhigh RNA, Cy5 (ssRNA)
RNA: UGCUGGGAUGGUCAUGGUGGGUGACCCUGGGAUGGCCGCGGUGGGUGACCCUGGAAUGGU
For B2, in series [2], the binding result was “binds”.

B3: UGhigh RNA, biotin (ssRNA)
RNA: UGCUGGGAUGGUCAUGGUGGGUGACCCUGGGAUGGCCGCGGUGGGUGACCCUGGAAUGGU
For the molecule B3, the binding result in series [3] is “binds”.
